# Reference: publication PMC7198388, “Radiohybrid Ligands: A Novel Tracer Concept Exemplified by ^18F- or ^68Ga-Labeled rhPSMA Inhibitors” (Journal of Nuclear Medicine, 2020)
# Like-named read-outs stand apart in the source and are kept apart here.
# What was measured:
# LNCaP cells = assay: Internalization into LNCaP cells, normalized to (125I-I-BA)KuE; assay type: cell-based, human; conditions: LNCaP cells 1.25 x 10^5/well, 1 h, 37°C, ligand 0.5 nM/well; % of specific internalization of (125I-I-BA)KuE; 68Ga-19F or 18F free-chelator form; mean ± SD, n = 3
# Description: Internalization studies were carried out according to a previously published procedure (1). Briefly, LNCaP cells were harvested 24 ± 2 hours before the experiment and seeded in poly -L-lysine coated 24-well plates […]
# After removal of the culture medium, the cells were washed once with 500 µL DMEM -F12 (5% BSA) and left to equilibrate for at least 15 min at 37 °C in 200 µL DMEM-F12 (5% BSA). Each well was treated with either 25 µL of either DMEM-F12 (5% BSA, control) or 25 µL of a 100 µM PMPA (2-(Phosphonomethyl)-pentandioic acid, Tocris Bioscience, Bristol, UK) solution in PBS, for blockade. Next, 25 µL of the radioactive-labelled PSMA inhibitor (5.0 nM in PBS) was added and the cells were incubat ed at 37 °C for 60 min. The experiment was terminated by placing the 24 -well plate on ice for 3 min and consecutive removal of the medium. Each well was carefully washed with 250 µL of ice-cold HBSS. Both fractions from the first steps, representing the amount of free radioligand, were combined. Removal of surface bound activity was accomplished by incubation of the cells with 250 µL of ice-cold PMPA (10 µM in PBS) solution for 5 min […]
# and rinsed again with another 250 µL of ice-cold PBS. The internalized activity was determined by incubation of the cells in 250 µL 1 M aqueous NaOH for at least 10 min. The obtained fractions were combined with those of the subsequent wash step with 250 µL 1 M aqueous NaOH. Each experiment (control and blockade) was performed in triplicate. Free, surface bound and internalized activity was quantified in a γ-counter. All internalization studies were accompanied by external reference studies, using […]
# Data were corrected for non-specific
# human serum albumin = molecular target: T1, human serum albumin (Homo sapiens, UniProt P02768); assay: HSA binding by HPLC on Chiralpak HSA column; assay type: in vitro ADME; conditions: affinity HPLC, 50 mM NH4OAc pH 6.9/isopropanol gradient, r.t., 0.5 mg/mL, calibrated with nine reference substances, natGa-19F form
# T1 construct: purchased Daicel H13H-2433
# T1 sequence (P02768 25-609): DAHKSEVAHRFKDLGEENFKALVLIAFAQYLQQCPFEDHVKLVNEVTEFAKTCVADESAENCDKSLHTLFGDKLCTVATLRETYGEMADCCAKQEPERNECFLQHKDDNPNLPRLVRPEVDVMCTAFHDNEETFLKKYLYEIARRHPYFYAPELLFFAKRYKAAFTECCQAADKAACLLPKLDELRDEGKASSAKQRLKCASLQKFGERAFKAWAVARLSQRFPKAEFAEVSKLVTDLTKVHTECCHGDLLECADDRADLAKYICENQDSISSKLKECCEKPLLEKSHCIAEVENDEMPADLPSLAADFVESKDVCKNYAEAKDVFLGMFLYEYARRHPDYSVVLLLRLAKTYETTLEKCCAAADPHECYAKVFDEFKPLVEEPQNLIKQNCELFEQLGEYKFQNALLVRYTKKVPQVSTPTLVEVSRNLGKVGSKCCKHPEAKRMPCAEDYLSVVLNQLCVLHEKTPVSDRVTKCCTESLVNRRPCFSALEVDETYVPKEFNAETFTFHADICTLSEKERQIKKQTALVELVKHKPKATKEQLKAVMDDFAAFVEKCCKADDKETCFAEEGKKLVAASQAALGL
# Description: with water (10 mL). The purified product was eluted with 50% aqueous ethanol (2 mL), phosphate buffered saline (PBS, 1 mL) and again water (1 mL). After removing ethanol in vacuo, purity of the radiolabelled compounds was determined by radio-HPLC and radio-TLC (ITLC-SG chromatography paper, mobile phase: 0.1 M trisodium citrate and Silica gel 60 RP-18 F254s, mobile phase: 3:2 mixture (v/v) of MeCN in H2O supplemented with 10% of 2 M NaOAc solution and 1% of TFA).
# 6. Human Serum Albumin (HSA) Binding
# HSA binding of the PSMA-addressing ligands was determined according to a previously published procedure via HPLC (7). A Chiralpak HSA column (50 x 3 mm, 5 μm, H13H-2433, Daicel, Tokyo, Japan) […]
# literature, in the range of 13 to 99% (7,8). All substances, including the examined PSMA ligands, were […]
# final concentration of 0.5 mg/mL.
# (Northampton, United States).
# Affinity determinations (IC50)
# The PSMA affinity (IC50) determinations and synthesis of the radioiodinated reference ligand (((S)-1- […]
# described previously (1). Briefly, the respective ligand was diluted (serial dilution 10-4 to 10-10) in Hank’s balanced salt solution (HBSS, Biochrom). In the case of metal-complexed ligands, the crude reaction mixture containing the purified metal-complexed inhibitor and remaining metal nitrate, was diluted THE JOURNAL OF NUCLEAR MEDICINE • Vol. 61 • No. 5 • May 2020 Wurzer et al.
# [1] = Biodistribution in LNCaP tumor-bearing CB-17 SCID mice; conditions: male, mouse, in vivo, iv, 0.2 nmol, total radioactivity, 1 h p.i., i.v. tail vein, mean ± SD, n = 3 (n = 4 for rhPSMA-10)
# Text: Mice were used for experiments when tumors had grown to a diameter of 5–10 mm (3–6 wk after inoculation).
# Selected organs were removed, weighed, and measured in a γ-counter.
# [2] = read-out: Biodistribution, Adrenals
# [3] = read-out: Biodistribution, Blood
# [4] = read-out: Biodistribution, Bone
# [5] = read-out: Biodistribution, Heart
# [6] = read-out: Biodistribution, Intestine
# [7] = read-out: Biodistribution, Kidneys
# [8] = read-out: Biodistribution, Liver
# [9] = read-out: Biodistribution, Lung
# [10] = read-out: Biodistribution, Muscle
# [11] = read-out: Biodistribution, Pancreas
# [12] = read-out: Biodistribution, Spleen
# [13] = read-out: Biodistribution, Stomach
# [14] = LNCaP tumor, read-out: Biodistribution, Tumor
SMILES,Internalization (LNCaP cells),HSA-binding (human serum albumin) [%],"tissue uptake at 1 h [1, 2] [%ID/g]","tissue uptake at 1 h [1, 3] [%ID/g]","tissue uptake at 1 h [1, 4] [%ID/g]","tissue uptake at 1 h [1, 5] [%ID/g]","tissue uptake at 1 h [1, 6] [%ID/g]","tissue uptake at 1 h [1, 7] [%ID/g]","tissue uptake at 1 h [1, 8] [%ID/g]","tissue uptake at 1 h [1, 9] [%ID/g]","tissue uptake at 1 h [1, 10] [%ID/g]","tissue uptake at 1 h [1, 11] [%ID/g]","tissue uptake at 1 h [1, 12] [%ID/g]","tissue uptake at 1 h [1, 13] [%ID/g]","tissue uptake at 1 h [1, 14] [%ID/g]"
"CC(C)(C)[Si](F)(c1ccc(C(=O)NC[C@@H](C(=O)N[C@H](CCCCNC(=O)CCCCCCC(=O)NCCCC[C@H](NC(=O)N[C@@H](CCC(=O)O)C(=O)O)C(=O)O)C(=O)O)n2cc(CNC(=O)CCP(=O)(O)CN3CCN(CP(=O)(O)CCC(=O)O)CCN(CP(=O)(O)CCC(=O)O)CC3)nn2)cc1)C(C)(C)C [68/natGa-19/18F-rhPSMA-5, metal not drawn]",43 ± 3 % of reference,,,,,,,,,,,,,,
"CC(C)(C)[Si](F)(c1ccc(C(=O)NC[C@@H](NC(=O)CCC(C(=O)O)N2CCN(CC(=O)O)CCN(CC(=O)O)CCN(CC(=O)O)CC2)C(=O)N[C@H](CCCCNC(=O)CCCCCCC(=O)NCCCC[C@H](NC(=O)N[C@@H](CCC(=O)O)C(=O)O)C(=O)O)C(=O)O)cc1)C(C)(C)C (some centres unmarked) [68/natGa-19/18F-rhPSMA-6, metal not drawn]",33 ± 2 % of reference,,,,,,,,,,,,,,
"CC(C)(C)[Si](F)(c1ccc(C(=O)N[C@H](CNC(=O)CCC(C(=O)O)N2CCN(CC(=O)O)CCN(CC(=O)O)CCN(CC(=O)O)CC2)C(=O)N[C@H](CCCCNC(=O)CCC(=O)NCCC[C@@H](NC(=O)CC[C@H](NC(=O)N[C@@H](CCC(=O)O)C(=O)O)C(=O)O)C(=O)O)C(=O)O)cc1)C(C)(C)C (some centres unmarked) [68/natGa-19/18F-rhPSMA-8, metal not drawn]",98 ± 12 % of reference,97,2.2 ± 0.8,1.7 ± 0.1,0.32 ± 0.07,0.93 ± 0.08,0.35 ± 0.01,82.3 ± 5.9,0.79 ± 0.17,1.3 ± 0.2,0.24 ± 0.02,0.48 ± 0.11,6.3 ± 1.5,0.42 ± 0.11,6.5 ± 0.8
"CC(C)(C)[Si](F)(c1ccc(C(=O)NC[C@@H](C(=O)N[C@H](CCCCNC(=O)CCC(=O)NCCC[C@@H](NC(=O)CC[C@H](NC(=O)N[C@@H](CCC(=O)O)C(=O)O)C(=O)O)C(=O)O)C(=O)O)n2cc(CNC(=O)CCP(=O)(O)CN3CCN(CP(=O)(O)CCC(=O)O)CCN(CP(=O)(O)CCC(=O)O)CC3)nn2)cc1)C(C)(C)C [68/natGa-19/18F-rhPSMA-9, metal not drawn]",180 ± 12 % of reference,95,2.7 ± 0.2,0.46 ± 0.11,0.18 ± 0.05,0.48 ± 0.17,0.44 ± 0.34,54.9 ± 3,0.42 ± 0.07,0.94 ± 0.2,0.19 ± 0.06,0.39 ± 0.09,25.4 ± 5.2,0.48 ± 0.4,7.2 ± 0.6
